Columns and labels:
Assay type in all cases: cell-based
[1] = system: Src; test: Tyrosine phosphorylation by Western blotting: Src phosphorylation in TNBC cell lines
Procedure: (§1) BT20 and MDA-MB468 triple negative (HER2-, ER-, PR-) were obtained from American Type Culture Collection (ATCC N°HTB19, and ATCC N°HTB132, respectively). The LumB, and Her2-, ER-, PR-negative IJG-1731 cell line was previously established at the laboratory as described (Mombelli et al. Sci Rep. 2015 Jul. 8; 5:11874.) BT20 and IJG-1731 cells were grown in complete RPMI-1640 media with L-glutamine, supplemented with 10% fetal calf serum (FCS) and penicillin—streptomycin solution (100 μg/ml each) (Life technology, Saint-Aubain, France). MDA-MB468 cells were grown in a complete DMEM-F12 media with glutamine, 10% FCS and penicillin—streptomycin. All cells were maintained in a humidified 5% CO2 atmosphere at 37° C. All experiments were conducted with cells at confluency and starved for an overnight.
(§2) Cells (3×10^5) were seeded in 6-well plates in complete medium for 24 hours then starved for another overnight. Cells were then stimulated with IL-17E (10 ng/ml), EGF (10 ng/ml), or a combination of both for 30 min in serum-free medium. Cells were then lysed in 1% Triton X100 buffer and left on ice for 1 hours. Protein samples were then subjected to 8% SDS-PAGE. Western blotting using specific antibodies assessed then the phosphorylation of the various kinases.

[2] = system: STAT3; test: Tyrosine phosphorylation by Western blotting: STAT3 phosphorylation in TNBC cell lines; conditions: 10 ng/ml
Procedure: as §1, §2

[3] = system: STAT3; test: Cellular fractionation and Western blotting: STAT3 and pSTAT3 translocation to the nucleus; conditions: MDA-MB468 fractions
Procedure: as §1
(§3) Cells (3×10^5) were seeded in 6-well plates in complete medium for 24 hours then starved for another overnight. Cells were stimulated for 2 hours at 37° C. with IL-17E (10 ng/ml), EGF (long/ml), or a combination of both as indicated. Cells were then washed with PBS and lysed in a lysis buffer (HEPES 10 mM, MgCl2 15 mM KCl 10 mM, DTT 0.5 mM, PMSF 0.2 mM, 1 mM Na3VO4, 10 mM NaF, 0.5% Nonidet P-40). […] Protein concentrations were determined by using Bradford method. […]

[4] = system: EGFR; test: Immunofluorescence microscopy: localization of EGFR; conditions: MDA-MB468; 10 ng/ml, 2 hours; FIG. 4A, FIG. 7
Procedure: as §1
Cells (4.10^3) were grown on Lab-Tek chambers slide in their respective complete culture medium for 24 hours then starved for an overnight. Cells were then stimulated with IL-17E (long/ml), EGF (10 ng/ml) or a combination of both for 2 hours at 37° C., washed, and fixed with 4% paraformaldehyde (PFA)-PBS solution at 4° C. […] Slides were mounted with mounting medium containing Dapi then visualized with a Leica DMRB fluorescence microscope and images analysis was performed with the Archimed Software (Microvision).

[5] = system: PYK-2; test: Tyrosine phosphorylation by Western blotting: PYK-2 phosphorylation in TNBC cell lines; conditions: three cell lines; 10 ng/ml; FIG. 1
Procedure: as §1, §2

[6] = system: EGFR; test: Tyrosine phosphorylation by Western blotting: EGFR phosphorylation in TNBC cell lines; conditions: IJG-1731, BT-20 and MDA-MB468; 10 ng/ml; FIG. 1
Procedure: BT20 and MDA-MB468 triple negative (HER2-, ER-, PR-) were obtained from American Type Culture Collection (ATCC N°HTB19, and ATCC N°HTB132, respectively). […] MDA-MB468 cells were grown in a complete DMEM-F12 media with glutamine, 10% FCS and penicillin—streptomycin. All cells were maintained in a humidified 5% CO2 atmosphere at 37° C. All experiments were conducted with cells at confluency and starved for an overnight.
as §2

[7] = system: EGFR; test: Cellular fractionation and Western blotting: EGFR and pY1086EGFR translocation to the nucleus; conditions: MDA-MB468 cytoplasmic and nuclear fractions; FIG. 4A
Procedure: as §1, §3

B1: IL-17E: pro-inflammatory cytokine, product of the human IL-17E gene, also named IL-25 (protein, UniProt Q9H293 33-177, looked up)
Interleukin-25: YSHWPSCCPSKGQDTSEELLRWSTVPVPPLEPARPNRHPESCRASEDGPLNSRAISPWRYELDRDLNRLPQDLYHARCLCPHCVSLQTGSHMDPRGNSELLYHNQTVFYRRPCHGEKGTHKGYCLERRLYRVSLACVCVRPRVMG
phosphorylation of Src at Y416 at suboptimal concentrations ([1]; MDA-MB468, IL-17E 1 ng/ml alone or EGF 0.1-1 ng/ml alone, FIG. 3): failed to induce any significant phosphorylation | phosphorylation of Src at Y416 ([1]; three cell lines, 10 ng/ml, FIG. 1): induced the phosphorylation | phosphorylation of STAT3-α and -β at Y705 ([2]; IJG-1731 and BT20 cell lines, FIGS. 1A and B): induced considerable phosphorylation | phosphorylation of STAT3-α and -β ([2]; MDA-MB468 cell line): less evident | phosphorylation of STAT3α and β [3]: induced the phosphorylation | translocation of EGFR (immunofluorescence) [4]: induced the translocation of EGFR to the nucleus but to a lower extends compared to EGF | phosphorylation of PYK2 at Y402 [5]: induced the phosphorylation | intensity of induced EGFR phosphorylation [6]: comparable to that induced by EGF | translocation of non-phosphorylated EGFR form to the nucleus [7]: fairly translocate | translocation of phosphorylated EGFR (pY1086EGFR) to the nucleus [7]: failed to induce its significant translocation to the nucleus

B2: IL-17B: cytokine, product of the human IL-17B gene; ligand of IL-17RB (protein, UniProt Q9UHF5 21-180, looked up)
Interleukin-17B: QPRSPKSKRKGQGRPGPLAPGPHQVPLDLVSRMKPYARMEEYERNIEEMVAQLRNSSELAQRKCEVNLQLWMSNKRSLSPWGYSINHDPSRIPVDLPEARCLCLGCVNPFTMQEDRSMVSVPVFSQVPVRRRLCPPPPRTGPCRQRAVMETIAVGCTCIF
translocation of EGFR (immunofluorescence) [4]: induced a translocation from the membrane to cytoplasm with a strong perinuclear reorganization

From patent US20190151346A1, “COMBINATIONS THERAPIES FOR THE TREATMENT OF CANCER” (INSERM (INSTITUTE NATIONAL DE LA SANTÉ ET DE LA RECHERCHE …, priority 2016, published 2019)
